Test results as given in paper PMC4330383.

Columns and labels:
[1] = biological target: histones H3-H4 (full-length, recombinant Drosophila melanogaster) (Drosophila melanogaster) (UniProt P02299); assay: SEC-MALS; Superdex 200 10/300 GL Increase, 50 mM Tris pH 8.0, 1.5 M NaCl; for H3-H4 alone: tetramer of two H3-H4 dimers
[2] = biological target: histones H3-H4 (full-length, recombinant Drosophila melanogaster) (Drosophila melanogaster) (UniProt P02299); assay: SEC-MALS; Superdex 200 10/300 GL Increase, 50 mM Tris pH 8.0, 0.5 M NaCl, 20°C

Chain of ASF1a (1–156) (Q9Y294 1-156): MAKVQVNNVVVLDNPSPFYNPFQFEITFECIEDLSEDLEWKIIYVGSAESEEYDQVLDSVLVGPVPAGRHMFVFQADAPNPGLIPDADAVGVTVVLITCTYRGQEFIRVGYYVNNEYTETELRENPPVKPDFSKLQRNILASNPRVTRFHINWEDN

stoichiometry N ([1]; scale: H3-H4 dimers in the oligomer) | stoichiometry N (ASF1 per H3-H4 dimer (ratio H3:H4:ASF1)) [1] | stoichiometry N (ASF1 per H3-H4 dimer (ratio H3:H4:ASF1)) [2] | Substance
2 | – | – | histones H3-H4 (full-length, recombinant Drosophila melanogaster) (from UniProt P02299 1-136; P84040 1-103) (complex)
– | 1 | 1 | ASF1a (1–156) (from UniProt Q9Y294 1-156) (domain or fragment; other documents disagree on this pair)
